# In patent US20090291890A1 (published 2009):
# Molecular target: Factor X (FX) (Homo sapiens (Human)) (UniProt P00742)
# Sequence (P00742 41-488 limits assumed): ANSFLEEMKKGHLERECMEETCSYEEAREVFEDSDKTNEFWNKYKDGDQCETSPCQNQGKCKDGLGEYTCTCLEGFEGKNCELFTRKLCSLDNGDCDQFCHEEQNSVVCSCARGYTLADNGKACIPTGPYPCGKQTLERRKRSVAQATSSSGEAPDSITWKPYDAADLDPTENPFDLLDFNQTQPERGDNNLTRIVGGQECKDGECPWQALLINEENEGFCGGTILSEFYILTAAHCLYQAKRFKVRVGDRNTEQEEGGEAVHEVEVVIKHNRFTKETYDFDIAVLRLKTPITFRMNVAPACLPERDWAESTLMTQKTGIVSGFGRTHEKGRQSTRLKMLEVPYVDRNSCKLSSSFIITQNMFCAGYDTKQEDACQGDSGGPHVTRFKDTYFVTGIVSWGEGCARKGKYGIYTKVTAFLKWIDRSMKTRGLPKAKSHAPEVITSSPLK
binder,measurement,value
FVIIa variant S222A/H257A (enzyme) ANAFLEELRPGSLERECKEEQCSFEEAREIFKDAERTKLFWISYSDGDQCASSPCQNGGSCKDQLQSYICFCLPAFEGRNCETHKDDQLICVNENGGCEQYCSDHTGTKRSCRCHEGYSLLADGVSCTPTVEYPCGKIPILEKRNASKPQGRIVGGKVCPKGECPWQVLLLVNGAQLCGGTLINTIWVVSAAHCFDKIKNWRNLIAVLGEHDLSEHDGDEQARRVAQVIIPSTYVPGTTNHDIALLRLHQPVVLTDAVVPLCLPERTFSERTLAFVRFSLVSGWGQLLDRGATALELMVLNVPRLMTQDCLQQSRKVGDSPNITEYMFCAGYSDGSKDSCKGDSGGPHATHYRGTWYLTGIVSWGQGCATVGHFGVYTRVSQYIEWLQKLMRSEPRPGVLLRAPFP,"kcat/KM, TF-Dependent Indirect Assay",5.02e+07 M⁻¹ s⁻¹
FVIIa variant Q366M (enzyme) ANAFLEELRPGSLERECKEEQCSFEEAREIFKDAERTKLFWISYSDGDQCASSPCQNGGSCKDQLQSYICFCLPAFEGRNCETHKDDQLICVNENGGCEQYCSDHTGTKRSCRCHEGYSLLADGVSCTPTVEYPCGKIPILEKRNASKPQGRIVGGKVCPKGECPWQVLLLVNGAQLCGGTLINTIWVVSAAHCFDKIKNWRNLIAVLGEHDLSEHDGDEQSRRVAQVIIPSTYVPGTTNHDIALLRLHQPVVLTDHVVPLCLPERTFSERTLAFVRFSLVSGWGQLLDRGATALELMVLNVPRLMTQDCLQQSRKVGDSPNITEYMFCAGYSDGSKDSCKGDSGGPHATHYRGTWYLTGIVSWGMGCATVGHFGVYTRVSQYIEWLQKLMRSEPRPGVLLRAPFP,"kcat/KM, TF-Dependent Indirect Assay",6.61e+07 M⁻¹ s⁻¹
FVIIa variant S222A/Q286R/Q366V (enzyme) ANAFLEELRPGSLERECKEEQCSFEEAREIFKDAERTKLFWISYSDGDQCASSPCQNGGSCKDQLQSYICFCLPAFEGRNCETHKDDQLICVNENGGCEQYCSDHTGTKRSCRCHEGYSLLADGVSCTPTVEYPCGKIPILEKRNASKPQGRIVGGKVCPKGECPWQVLLLVNGAQLCGGTLINTIWVVSAAHCFDKIKNWRNLIAVLGEHDLSEHDGDEQARRVAQVIIPSTYVPGTTNHDIALLRLHQPVVLTDHVVPLCLPERTFSERTLAFVRFSLVSGWGRLLDRGATALELMVLNVPRLMTQDCLQQSRKVGDSPNITEYMFCAGYSDGSKDSCKGDSGGPHATHYRGTWYLTGIVSWGVGCATVGHFGVYTRVSQYIEWLQKLMRSEPRPGVLLRAPFP,"kcat/KM, TF-Dependent Indirect Assay",1.27e+08 M⁻¹ s⁻¹
FVIIa variant S222V (enzyme) ANAFLEELRPGSLERECKEEQCSFEEAREIFKDAERTKLFWISYSDGDQCASSPCQNGGSCKDQLQSYICFCLPAFEGRNCETHKDDQLICVNENGGCEQYCSDHTGTKRSCRCHEGYSLLADGVSCTPTVEYPCGKIPILEKRNASKPQGRIVGGKVCPKGECPWQVLLLVNGAQLCGGTLINTIWVVSAAHCFDKIKNWRNLIAVLGEHDLSEHDGDEQVRRVAQVIIPSTYVPGTTNHDIALLRLHQPVVLTDHVVPLCLPERTFSERTLAFVRFSLVSGWGQLLDRGATALELMVLNVPRLMTQDCLQQSRKVGDSPNITEYMFCAGYSDGSKDSCKGDSGGPHATHYRGTWYLTGIVSWGQGCATVGHFGVYTRVSQYIEWLQKLMRSEPRPGVLLRAPFP,"kcat/KM, TF-Dependent Indirect Assay",6.04e+07 M⁻¹ s⁻¹
FVIIa variant S222N (enzyme) ANAFLEELRPGSLERECKEEQCSFEEAREIFKDAERTKLFWISYSDGDQCASSPCQNGGSCKDQLQSYICFCLPAFEGRNCETHKDDQLICVNENGGCEQYCSDHTGTKRSCRCHEGYSLLADGVSCTPTVEYPCGKIPILEKRNASKPQGRIVGGKVCPKGECPWQVLLLVNGAQLCGGTLINTIWVVSAAHCFDKIKNWRNLIAVLGEHDLSEHDGDEQNRRVAQVIIPSTYVPGTTNHDIALLRLHQPVVLTDHVVPLCLPERTFSERTLAFVRFSLVSGWGQLLDRGATALELMVLNVPRLMTQDCLQQSRKVGDSPNITEYMFCAGYSDGSKDSCKGDSGGPHATHYRGTWYLTGIVSWGQGCATVGHFGVYTRVSQYIEWLQKLMRSEPRPGVLLRAPFP,"kcat/KM, TF-Dependent Indirect Assay",6.82e+07 M⁻¹ s⁻¹
FVIIa variant A175S/Q286R/Q366V (enzyme) ANAFLEELRPGSLERECKEEQCSFEEAREIFKDAERTKLFWISYSDGDQCASSPCQNGGSCKDQLQSYICFCLPAFEGRNCETHKDDQLICVNENGGCEQYCSDHTGTKRSCRCHEGYSLLADGVSCTPTVEYPCGKIPILEKRNASKPQGRIVGGKVCPKGECPWQVLLLVNGSQLCGGTLINTIWVVSAAHCFDKIKNWRNLIAVLGEHDLSEHDGDEQSRRVAQVIIPSTYVPGTTNHDIALLRLHQPVVLTDHVVPLCLPERTFSERTLAFVRFSLVSGWGRLLDRGATALELMVLNVPRLMTQDCLQQSRKVGDSPNITEYMFCAGYSDGSKDSCKGDSGGPHATHYRGTWYLTGIVSWGVGCATVGHFGVYTRVSQYIEWLQKLMRSEPRPGVLLRAPFP,"kcat/KM, TF-Dependent Indirect Assay",8.08e+07 M⁻¹ s⁻¹
FVIIa variant S222E (enzyme) ANAFLEELRPGSLERECKEEQCSFEEAREIFKDAERTKLFWISYSDGDQCASSPCQNGGSCKDQLQSYICFCLPAFEGRNCETHKDDQLICVNENGGCEQYCSDHTGTKRSCRCHEGYSLLADGVSCTPTVEYPCGKIPILEKRNASKPQGRIVGGKVCPKGECPWQVLLLVNGAQLCGGTLINTIWVVSAAHCFDKIKNWRNLIAVLGEHDLSEHDGDEQERRVAQVIIPSTYVPGTTNHDIALLRLHQPVVLTDHVVPLCLPERTFSERTLAFVRFSLVSGWGQLLDRGATALELMVLNVPRLMTQDCLQQSRKVGDSPNITEYMFCAGYSDGSKDSCKGDSGGPHATHYRGTWYLTGIVSWGQGCATVGHFGVYTRVSQYIEWLQKLMRSEPRPGVLLRAPFP,"kcat/KM, TF-Dependent Indirect Assay",5.48e+07 M⁻¹ s⁻¹
FVIIa variant Q286L (enzyme) ANAFLEELRPGSLERECKEEQCSFEEAREIFKDAERTKLFWISYSDGDQCASSPCQNGGSCKDQLQSYICFCLPAFEGRNCETHKDDQLICVNENGGCEQYCSDHTGTKRSCRCHEGYSLLADGVSCTPTVEYPCGKIPILEKRNASKPQGRIVGGKVCPKGECPWQVLLLVNGAQLCGGTLINTIWVVSAAHCFDKIKNWRNLIAVLGEHDLSEHDGDEQSRRVAQVIIPSTYVPGTTNHDIALLRLHQPVVLTDHVVPLCLPERTFSERTLAFVRFSLVSGWGLLLDRGATALELMVLNVPRLMTQDCLQQSRKVGDSPNITEYMFCAGYSDGSKDSCKGDSGGPHATHYRGTWYLTGIVSWGQGCATVGHFGVYTRVSQYIEWLQKLMRSEPRPGVLLRAPFP,"kcat/KM, TF-Dependent Indirect Assay",2.02e+07 M⁻¹ s⁻¹
FVIIa variant A175S/S222A/Q366V (enzyme) ANAFLEELRPGSLERECKEEQCSFEEAREIFKDAERTKLFWISYSDGDQCASSPCQNGGSCKDQLQSYICFCLPAFEGRNCETHKDDQLICVNENGGCEQYCSDHTGTKRSCRCHEGYSLLADGVSCTPTVEYPCGKIPILEKRNASKPQGRIVGGKVCPKGECPWQVLLLVNGSQLCGGTLINTIWVVSAAHCFDKIKNWRNLIAVLGEHDLSEHDGDEQARRVAQVIIPSTYVPGTTNHDIALLRLHQPVVLTDHVVPLCLPERTFSERTLAFVRFSLVSGWGQLLDRGATALELMVLNVPRLMTQDCLQQSRKVGDSPNITEYMFCAGYSDGSKDSCKGDSGGPHATHYRGTWYLTGIVSWGVGCATVGHFGVYTRVSQYIEWLQKLMRSEPRPGVLLRAPFP,"kcat/KM, TF-Dependent Indirect Assay",3.78e+07 M⁻¹ s⁻¹
FVIIa variant S222D (enzyme) ANAFLEELRPGSLERECKEEQCSFEEAREIFKDAERTKLFWISYSDGDQCASSPCQNGGSCKDQLQSYICFCLPAFEGRNCETHKDDQLICVNENGGCEQYCSDHTGTKRSCRCHEGYSLLADGVSCTPTVEYPCGKIPILEKRNASKPQGRIVGGKVCPKGECPWQVLLLVNGAQLCGGTLINTIWVVSAAHCFDKIKNWRNLIAVLGEHDLSEHDGDEQDRRVAQVIIPSTYVPGTTNHDIALLRLHQPVVLTDHVVPLCLPERTFSERTLAFVRFSLVSGWGQLLDRGATALELMVLNVPRLMTQDCLQQSRKVGDSPNITEYMFCAGYSDGSKDSCKGDSGGPHATHYRGTWYLTGIVSWGQGCATVGHFGVYTRVSQYIEWLQKLMRSEPRPGVLLRAPFP,"kcat/KM, TF-Dependent Indirect Assay",5.34e+07 M⁻¹ s⁻¹
FVIIa variant Q286Y (enzyme) ANAFLEELRPGSLERECKEEQCSFEEAREIFKDAERTKLFWISYSDGDQCASSPCQNGGSCKDQLQSYICFCLPAFEGRNCETHKDDQLICVNENGGCEQYCSDHTGTKRSCRCHEGYSLLADGVSCTPTVEYPCGKIPILEKRNASKPQGRIVGGKVCPKGECPWQVLLLVNGAQLCGGTLINTIWVVSAAHCFDKIKNWRNLIAVLGEHDLSEHDGDEQSRRVAQVIIPSTYVPGTTNHDIALLRLHQPVVLTDHVVPLCLPERTFSERTLAFVRFSLVSGWGYLLDRGATALELMVLNVPRLMTQDCLQQSRKVGDSPNITEYMFCAGYSDGSKDSCKGDSGGPHATHYRGTWYLTGIVSWGQGCATVGHFGVYTRVSQYIEWLQKLMRSEPRPGVLLRAPFP,"kcat/KM, TF-Dependent Indirect Assay",1.61e+07 M⁻¹ s⁻¹
FVIIa variant Q366I (enzyme) ANAFLEELRPGSLERECKEEQCSFEEAREIFKDAERTKLFWISYSDGDQCASSPCQNGGSCKDQLQSYICFCLPAFEGRNCETHKDDQLICVNENGGCEQYCSDHTGTKRSCRCHEGYSLLADGVSCTPTVEYPCGKIPILEKRNASKPQGRIVGGKVCPKGECPWQVLLLVNGAQLCGGTLINTIWVVSAAHCFDKIKNWRNLIAVLGEHDLSEHDGDEQSRRVAQVIIPSTYVPGTTNHDIALLRLHQPVVLTDHVVPLCLPERTFSERTLAFVRFSLVSGWGQLLDRGATALELMVLNVPRLMTQDCLQQSRKVGDSPNITEYMFCAGYSDGSKDSCKGDSGGPHATHYRGTWYLTGIVSWGIGCATVGHFGVYTRVSQYIEWLQKLMRSEPRPGVLLRAPFP,"kcat/KM, TF-Dependent Indirect Assay",9.37e+07 M⁻¹ s⁻¹
FVIIa variant Q366L (enzyme) ANAFLEELRPGSLERECKEEQCSFEEAREIFKDAERTKLFWISYSDGDQCASSPCQNGGSCKDQLQSYICFCLPAFEGRNCETHKDDQLICVNENGGCEQYCSDHTGTKRSCRCHEGYSLLADGVSCTPTVEYPCGKIPILEKRNASKPQGRIVGGKVCPKGECPWQVLLLVNGAQLCGGTLINTIWVVSAAHCFDKIKNWRNLIAVLGEHDLSEHDGDEQSRRVAQVIIPSTYVPGTTNHDIALLRLHQPVVLTDHVVPLCLPERTFSERTLAFVRFSLVSGWGQLLDRGATALELMVLNVPRLMTQDCLQQSRKVGDSPNITEYMFCAGYSDGSKDSCKGDSGGPHATHYRGTWYLTGIVSWGLGCATVGHFGVYTRVSQYIEWLQKLMRSEPRPGVLLRAPFP,"kcat/KM, TF-Dependent Indirect Assay",6.87e+07 M⁻¹ s⁻¹
FVIIa variant Q286M (enzyme) ANAFLEELRPGSLERECKEEQCSFEEAREIFKDAERTKLFWISYSDGDQCASSPCQNGGSCKDQLQSYICFCLPAFEGRNCETHKDDQLICVNENGGCEQYCSDHTGTKRSCRCHEGYSLLADGVSCTPTVEYPCGKIPILEKRNASKPQGRIVGGKVCPKGECPWQVLLLVNGAQLCGGTLINTIWVVSAAHCFDKIKNWRNLIAVLGEHDLSEHDGDEQSRRVAQVIIPSTYVPGTTNHDIALLRLHQPVVLTDHVVPLCLPERTFSERTLAFVRFSLVSGWGMLLDRGATALELMVLNVPRLMTQDCLQQSRKVGDSPNITEYMFCAGYSDGSKDSCKGDSGGPHATHYRGTWYLTGIVSWGQGCATVGHFGVYTRVSQYIEWLQKLMRSEPRPGVLLRAPFP,"kcat/KM, TF-Dependent Indirect Assay",5.25e+07 M⁻¹ s⁻¹
